This is an account of results in patent US20040131591A1 (OXFORD BIOMEDICA UK, published 2004).

For this test, the target named is T1, human 5T4 (oncofetal glycoprotein 5T4, trophoblast cell surface antigen) (human, UniProt Q13641 32-420).
T1 construct: whole, on cells; also called h5T4; 5T4 antigen
T1 sequence (looked up): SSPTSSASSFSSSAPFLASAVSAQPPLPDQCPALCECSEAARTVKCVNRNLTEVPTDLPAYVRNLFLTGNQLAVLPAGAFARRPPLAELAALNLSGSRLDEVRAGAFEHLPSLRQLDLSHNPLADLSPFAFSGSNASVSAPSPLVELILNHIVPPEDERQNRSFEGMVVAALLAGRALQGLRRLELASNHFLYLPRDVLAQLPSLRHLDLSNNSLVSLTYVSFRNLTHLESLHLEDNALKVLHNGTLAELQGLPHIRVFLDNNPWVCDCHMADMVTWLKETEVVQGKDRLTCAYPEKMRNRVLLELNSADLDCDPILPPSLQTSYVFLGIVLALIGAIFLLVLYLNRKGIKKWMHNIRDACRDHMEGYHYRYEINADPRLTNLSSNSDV
Nature of the test: FACS: A9-h5T4 cells with B7.1/ScFv supernatant, then CTLA4-Ig, detected with FITC anti-mouse Ig.

Description: After washing cells were incubated with CTLA4-Ig (Ancell) for 1 hour. After washing, bound CTLA4-Ig was detected using an FITC conjugated anti-mouse Ig (Dako).

B1: B7-1/ScFv fusion protein (leader sequence and extracellular domain of murine B7.1 fused via a flexible linker to the VH and VL of the murine Mab 5T4 specific … (other)
chain: VDEQLSKSVKDKVLLPCRYNSPHEDESEDRIYWQKHDKVVLSVIAGKLKVWPEYKNRTLYDNTTYSLIILGLVLSDRGTYSCVVQKKERGTYEVKHLALVKLSIKADFSTPNITESGNPSADTKRITCFASGGFPKPRFSWLENGRELPGINTTISQDPESELYTISSQLDFNTTRNHTIKCLIKYGDAHVSEDFTWEKPPEDPPDSKPGGGGSGGGGSGGGGTSEVQLQQSGPDLVKPGASVKISCKASGYSFTGYYMHWVKQSHGKSLEWIGRINPNNGVTLYNQKFKDKAILTVDKSSTTAYMELRSLTSEDSAVYYCARSTMITNYVMDYWGQVTSVTVSSGGGGSGGGGTGGGGSSIVMTQTPTFLLVSAGDRVTITCKASQSVSNDVAWYQQKPGQSPTLLISYTSSRYAGVPDRFIGSGYGTDFTFTISTLQAEDLAVYFCQQDYNSPPTFGGGTKLEIKR
notes: Tested as about 30-fold concentrated supernatant of transiently transfected 293T cells; also called B7/ScFv; OBM 233
On to B1, for which the binding result was “binds”.
